Data as given in US20240425607A1, “IL-18BP ANTAGONIST ANTIBODIES AND THEIR USE IN MONOTHERAPY AND COMBINATION THERAPY IN THE TREATMENT OF CANCER” (Compugen Ltd., priority 2023, published 2024).
Entries after “also recorded” stand apart in the source; their conditions may differ.

What was measured:
[1] = target: T1, recombinant human IL18-BP (Homo sapiens, UniProt O95998); experiment: CMV recall assay; type: cell-based
T1 construct: purchased R&D systems 119-BP
T1 sequence (O95998 31-194): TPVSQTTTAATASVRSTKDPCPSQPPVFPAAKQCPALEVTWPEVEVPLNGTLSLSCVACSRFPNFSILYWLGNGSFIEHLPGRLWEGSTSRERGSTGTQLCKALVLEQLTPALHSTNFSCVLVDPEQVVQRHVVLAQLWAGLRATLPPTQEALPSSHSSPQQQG
Method: Human MEL-624 overexpressing PD-L1 cells were thawed and loaded with CMV pp65 peptide (0.03 μg/ml). The cells were seeded at 100K/well in a 96 well plate and incubated for 30 minutes in 37° C., 5% C02 incubator with a combination rhIL-18 (30 ng/ml, R&D systems, 9124-IL/CF) and rhIL-18BP-Fc chimeric protein (2 μg/ml, R&D systems 119-BP) to allow IL-18+IL-18BP complex formation. After 30 minutes, anti-human IL-18BP (ADI-71722), anti-human PVRIG, anti-human TIGIT (anti-TIGIT), anti-human PD1 (Pembrolizumab) or relevant isotype control (hIgG4) were added to the culture to examine their capability to restore IL-18 activity. All antibodies were added to a final concentration of 10 μg/ml. 30 minutes post incubation with antibodies, thawed CMV-reactive T-cells were added to the culture. Cells and all added solutions were prepared in full IMDM (IMDM media with 10% human serum, 1% Glutamax, 1% MEM eagle, 1% sodium pyruvate, and 1% Penicillin-Streptomycin Solution) to a final volume of 200 μl/well. Plates were incubated for 24 hours in 37° C., 5% C02 incubator, after which the supernatant was collected for IFNγ secretion evaluation. All tests were done in triplicates and each repeated with three donors.
MEL624 cells that overexpress PD-L1 were loaded with CMV peptide pp65. […] CMV-specific T-cells were then added to the culture and IFNg secretion was measured after an overnight incubation.

[2] = target: T2, human IL18BP-Fc binding to human IL-18 (Homo sapiens, UniProt O95998); experiment: Blocking of hIL18BP-hIL-18 interaction by ELISA, IL18BP plate bound; settings: 1 ng/ml human IL-18, compared with clone W19089C
T2 sequence (O95998 31-194): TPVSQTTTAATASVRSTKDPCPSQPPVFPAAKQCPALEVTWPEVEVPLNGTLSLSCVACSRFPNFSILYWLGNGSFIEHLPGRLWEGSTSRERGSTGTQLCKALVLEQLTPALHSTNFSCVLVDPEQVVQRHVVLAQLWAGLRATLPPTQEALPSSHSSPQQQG
Method: This assay was utilized to identify anti-human IL18BP Abs that inhibit the binding interaction between human IL18BP- and its counterpart, human IL-18. […] Human IL18BP-Fc protein was coated on the wells of a high binding plate overnight at 4° C. (1 μg/ml, 100 μl/well volume). Plates were washed three times with PBS-T buffer (1×PBS pH 7.4, 0.05% Tween20) incubated with 250 μL blocking buffer (2.5% skim milk in PBS) at room temperature (RT) for 2 hr. Blocking buffer was removed and plates were washed three times with PBS-T buffer. Plate-bound ligands were incubated with anti-human IL18BP Abs in 1% BSA in PBS buffer two times serially diluted (2.5-0.019 μg/ml, 100 μL/well volume) at RT for 1 h. Plates were washed one time with PBS. Plate-bound ligands were incubated with human IL-18 (cat. 9124-IL, R&D) in 1% BSA in PBS buffer (1 ng/ml, 100 μL/well volume) at RT for 1 h. Plates were washed three times with PBS-T (0.05% Tween20 in PBS). Biotinylated anti-IL18 detection antibody, cat. D045-6, R&D 1:1000 in 1% BSA in PBS buffer was added (100 μL/well). This was incubated at RT for 1 hr, and plates were washed again. Peroxidase Streptavidin, Jackson, cat. 016-030-084 1:1000 in 2.5% skim milk in PBS was added (100 μL/well) for 1 hr at RT. […] The HRP reaction was stopped by adding 50 μL 1N HCl and absorbance signals at 450 nm were read on a luminescence Reader-EnSpire (Perkin Elmar). […]

B1: ADI-71739: anti-IL18-BP antibody, sequences in FIG. 2K; 66716 lineage (antibody, V domains shown)
VH: QLQLQESGPGLVKPSETLSLTCTVSGGSISSPDYPWGWIRQPPGKGLEWIGSIYYQGATYYNPSLKSRVTISVDTSKNQFSLKLSSVTAADTAVYYCARGPYRQLFDYWGQGTLVTVSS
VL: DIQMTQSPSSVSASVGDRVTITCRASQGISSWLAWYQQKPGKAPKLLIYAASSLQSGVPSRFSGSGSGTDFTLTISSLQPEDFATYYCQQGSVFPYTFGGGTKVEIK
IFNγ secretion by CMV-reactive T-cells, as mono ([1]; 10 μg/ml, rhIL-18 30 ng/ml + rhIL-18BP 2 μg/ml): increase IFNγ secretion from CMV-reactive T-cells; also recorded: increase IFNγ secretion by the T cells | IFNγ secretion by CMV-reactive T-cells, in combination ([1]; combined with Pembrolizumab, anti-PVRIG or anti-TIGIT, each 10 μg/ml, vs mono): in a more potent manner; also recorded: augmented | Blocking effect on binding of human IL18BP to human IL-18 [2]: superior to Biolegend Ab
